Reference: patent US20250011363A1, “OPTIMIZED SHORTENED PEPTIDE THAT BINDS TO ACETYLCHOLINE RECEPTOR, AND USE THEREOF” (SKINMED CO., LTD., priority 2021, published 2025)

Each substance was assayed against acetylcholine receptor (Homo sapiens, UniProt P02708) (assay: SPR binding affinity (RU) of optimized 5mer/6mer/7mer peptides, Examples 6-7). Conditions: 6mer-1 Top sequence; SPR; peptides tested at 10 μM.
Experimental: Based on the frequencies of occurrence of the top 7 amino acids from Table 7 in Example 5, 600 peptides comprising these amino acids (top combinations) and those comprising the 13 less frequently occurring amino acids (bottom combinations) were synthesized for each series of 5mer, 6mer-1, and 6mer-2. The binding affinity of each sequence for the acetylcholine receptor was measured using Surface Plasmon Resonance (SPR) analysis method. The peptides were tested at a concentration of 10 μM. Additionally, the average binding affinities of the top and bottom combinations in each series are depicted in FIGS. 5-7.
Representative peptides identified in Example 6, two in each library, including 5mers (73, 311) and 6mers-1 (43, 210) and 6mers-2 (136, 233), were compared with the pre-optimized 6mer, 5mer-ND, and Synake.

Sequence of acetylcholine receptor (P02708 21-457): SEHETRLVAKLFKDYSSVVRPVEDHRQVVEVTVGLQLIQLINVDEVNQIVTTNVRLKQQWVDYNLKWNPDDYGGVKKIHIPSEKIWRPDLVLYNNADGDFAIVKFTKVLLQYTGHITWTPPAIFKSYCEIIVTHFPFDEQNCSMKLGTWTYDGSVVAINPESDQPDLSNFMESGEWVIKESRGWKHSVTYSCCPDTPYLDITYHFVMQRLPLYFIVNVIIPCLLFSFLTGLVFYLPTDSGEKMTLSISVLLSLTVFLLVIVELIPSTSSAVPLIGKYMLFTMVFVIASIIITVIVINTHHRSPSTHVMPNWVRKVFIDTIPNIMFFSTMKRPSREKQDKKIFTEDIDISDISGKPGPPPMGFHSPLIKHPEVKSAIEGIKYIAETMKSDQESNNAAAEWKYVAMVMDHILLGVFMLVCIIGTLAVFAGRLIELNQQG

Row | Substance | Binding affinity
1 | 6mer-1-385 (KRQVLR) | 127 Ru
2 | 6mer-1-233 (KKWQSR) | 128 Ru
3 | 6mer-1-303 (RKQYCK) | 123 Ru
4 | 6mer-1-301 (RRSILR) | 154 Ru
5 | 6mer-1-251 (RKVQSK) | 133 Ru
6 | 6mer-1-216 (RKSIQR) | 148 Ru
7 | 6mer-1-222 (RRRVRR) | 145 Ru
8 | 6mer-1-390 (RKLQQR) | 121 Ru

Same assay, conditions: 6mer-2 Top sequence; SPR; peptides tested at 10 μM

Row | Substance | Binding affinity
9 | 6mer-2-98 (RRQQRR) | 148 Ru
10 | 6mer-2-51 (KQFLKK) | 139 Ru
11 | 6mer-2-161 (KWRRKK) | 154 Ru
12 | 6mer-2-30 (RQFYKK) | 139 Ru
13 | 6mer-2-133 (KRRLKK) | 145 Ru
14 | 6mer-2-147 (RQYTKR) | 133 Ru

Same assay, conditions: SPR, Resonance Units; 5mer Bottom sequence (bottom combinations); peptides tested at 10 μM

Row | Substance | Binding affinity
15 | 5mer-910 (RPCFR) | 17 Ru
16 | 5mer-954 (KTEVK) | 23 Ru
17 | 5mer-1019 (RFKFK) | 28 Ru
18 | 5mer-987 (RAHWR) | 22 Ru
19 | 5mer-715 (KCNGR) | 22 Ru
20 | 5mer-623 (KNTGR) | 19 Ru
21 | 5mer-674 (KETHR) | 22 Ru
22 | 5mer-1105 (RPTKR) | 33 Ru
23 | 5mer-949 (KMKMK) | 26 Ru
24 | 5mer-1020 (KCKVK) | 12 Ru
25 | 5mer-970 (KYMNR) | 33 Ru
26 | 5mer-1008 (KDSNR) | 11 Ru
27 | 5mer-938 (RIEFK) | 18 Ru

Same assay, conditions: SPR, Resonance Units; peptides tested at 10 μM; 6mer-1 Bottom sequence

Row | Substance | Binding affinity
28 | 6mer-1-1003 (RKYCHR) | 24 Ru
29 | 6mer-1-1029 (RRCMAK) | 40 Ru
30 | 6mer-1-1197 (KRPMAK) | 21 Ru
31 | 6mer-1-1135 (KKHTER) | 26 Ru
32 | 6mer-1-1149 (RKMTPK) | 30 Ru

Same assay, conditions: SPR, Resonance Units; peptides tested at 10 μM; 6mer-1 Bottom sequence (Table 11)

Row | Substance | Binding affinity
33 | 6mer-1-644 (RKTWFR) | 31 Ru
34 | 6mer-1-610 (KKHHER) | 27 Ru
35 | 6mer-1-636 (RKYKDR) | 27 Ru
36 | 6mer-1-744 (RKHEIK) | 31 Ru
37 | 6mer-1-602 (RKAEKR) | 18 Ru
38 | 6mer-1-716 (RRMPFK) | 11 Ru
39 | 6mer-1-632 (RKDTAR) | 17 Ru
40 | 6mer-1-747 (KKTMDR) | 24 Ru
41 | 6mer-1-682 (KKKDIR) | 30 Ru
42 | 6mer-1-780 (KRKCWR) | 24 Ru
43 | 6mer-1-759 (RKMTWR) | 23 Ru
44 | 6mer-1-625 (KREDKK) | 33 Ru
45 | 6mer-1-769 (RKMPVK) | 14 Ru
46 | 6mer-1-784 (KKFTPK) | 33 Ru

Same assay, conditions: SPR, Resonance Units; peptides tested at 10 μM; 6mer-2 Bottom sequence

Row | Substance | Binding affinity
47 | 6mer-2-717 (KCPGKR) | 15 Ru
48 | 6mer-2-773 (KPDARR) | 11 Ru
49 | 6mer-2-759 (RFDEKK) | 18 Ru
50 | 6mer-2-622 (RYTNKR) | 13 Ru
51 | 6mer-2-926 (RPTVKR) | 31 Ru
52 | 6mer-2-842 (KPKMRR) | 22 Ru
53 | 6mer-2-737 (KDSVRR) | 19 Ru
54 | 6mer-2-957 (RDTHRR) | 40 Ru
55 | 6mer-2-949 (RPNARR) | 39 Ru
56 | 6mer-2-965 (KPWFKR) | 36 Ru
57 | 6mer-2-790 (RCAGRR) | 23 Ru
58 | 6mer-2-626 (KNSEKK) | 33 Ru
59 | 6mer-2-729 (RCPDKR) | 30 Ru
60 | 6mer-2-769 (RCPFRK) | 13 Ru
61 | 6mer-2-923 (RCCAKK) | 33 Ru

Same assay, conditions: SPR, Resonance Units; peptides tested at 10 μM; 6mer-2 Top sequence

Row | Substance | Binding affinity
62 | 6mer-2-523 (RGRYKR) | 146 Ru
63 | 6mer-2-462 (KQICKR) | 145 Ru
64 | 6mer-2-491 (KRICKR) | 135 Ru
65 | 6mer-2-474 (RWQQRR) | 128 Ru
66 | 6mer-2-492 (RLIQKK) | 148 Ru
67 | 6mer-2-541 (KGQCRK) | 126 Ru
68 | 6mer-2-505 (KRQCKK) | 148 Ru
69 | 6mer-2-552 (RGLLRR) | 148 Ru
70 | 6mer-2-413 (RLILKR) | 136 Ru
71 | 6mer-2-471 (KWISRR) | 136 Ru
72 | 6mer-2-443 (RQYCRR) | 122 Ru

Same assay, conditions: SPR, Resonance Units; peptides tested at 10 μM; 6mer-2 Top sequence (Table 12)

Row | Substance | Binding affinity
73 | 6mer-2-374 (KRQLKK) | 125 Ru
74 | 6mer-2-242 (KSQRRR) | 135 Ru
75 | 6mer-2-230 (RWIQRR) | 135 Ru
76 | 6mer-2-331 (RWVSKK) | 148 Ru
77 | 6mer-2-310 (KLFQRK) | 149 Ru
78 | 6mer-2-353 (RLQTKK) | 137 Ru
79 | 6mer-2-319 (RSRQRK) | 137 Ru

Same assay, conditions: SPR, peptides at 10 μM; 6mer-2 Bottom sequence

Row | Substance | Binding affinity
80 | 6mer-2-1130 (RHSFRK) | 29 Ru
81 | 6mer-2-1088 (RPCEKK) | 39 Ru
82 | 6mer-2-1055 (KPDFKR) | 30 Ru
83 | 6mer-2-1159 (KDMGKR) | 40 Ru
84 | 6mer-2-1158 (RDNIRK) | 37 Ru
85 | 6mer-2-1099 (REDWRR) | 21 Ru
86 | 6mer-2-1105 (RNNAKK) | 28 Ru
87 | 6mer-2-1054 (KKNKKR) | 43 Ru
88 | 6mer-2-1146 (REWGRK) | 32 Ru
89 | 6mer-2-1196 (RESKKR) | 39 Ru
90 | 6mer-2-1007 (RHTNKK) | 42 Ru
91 | 6mer-2-1120 (RDMMKK) | 28 Ru

Same assay, conditions: SPR, peptides tested at 10 μM; 5mer Top sequence

Row | Substance | Binding affinity
92 | 5mer-164 (KSICK) | 54 Ru
93 | 5mer-203 (RQLTR) | 78 Ru
94 | 5mer-425 (RGFYR) | 80 Ru
95 | 5mer-320 (RVVQR) | 75 Ru
96 | 5mer-8 (RQRSR) | 51 Ru
97 | 5mer-463 (KWYTK) | 52 Ru
98 | 5mer-153 (RSIQK) | 72 Ru
99 | 5mer-19 (KRFQR) | 72 Ru
100 | 5mer-428 (RQFLK) | 86 Ru
101 | 5mer-323 (KWYYR) | 77 Ru
102 | 5mer-341 (RWYRR) | 52 Ru
103 | 5mer-38 (RGYCK) | 53 Ru
104 | 5mer-138 (RQRCR) | 71 Ru
105 | 5mer-92 (RVRLK) | 62 Ru
106 | 5mer-334 (KRFYK) | 64 Ru
107 | 5mer-465 (RWFRK) | 57 Ru
108 | 5mer-71 (KLQSK) | 68 Ru
109 | 5mer-365 (KRRYK) | 52 Ru
110 | 5mer-366 (RQLQK) | 52 Ru
111 | 5mer-174 (KGRQR) | 59 Ru
112 | 5mer-315 (KLFSR) | 77 Ru

Same assay, conditions: SPR, peptides tested at 10 μM; 5mer Top sequence (top combinations)

Row | Substance | Binding affinity
113 | 5mer-227 (RRQQR) | 84 Ru
114 | 5mer-235 (KGYSK) | 70 Ru
115 | 5mer-595 (KWQQR) | 58 Ru
116 | 5mer-591 (RVYTK) | 61 Ru
117 | 5mer-290 (RGYYR) | 57 Ru
118 | 5mer-291 (RWFTR) | 72 Ru
119 | 5mer-263 (KQVTR) | 80 Ru
120 | 5mer-556 (RVIYK) | 52 Ru

Same assay, conditions: SPR, peptides tested at 10 μM; 6mer-1 Bottom sequence (Table 11)

Row | Substance | Binding affinity
121 | 6mer-1-860 (RKHWWR) | 22 Ru

Same assay, conditions: SPR, peptides tested at 10 μM; 6mer-1 Top sequence

Row | Substance | Binding affinity
122 | 6mer-1-415 (RRGVCR) | 135 Ru
123 | 6mer-1-434 (KRWVCR) | 137 Ru
124 | 6mer-1-488 (KKWYSK) | 135 Ru
125 | 6mer-1-499 (RKLFYR) | 149 Ru
126 | 6mer-1-509 (RKWLRK) | 128 Ru

Same assay, conditions: SPR, peptides tested at 10 μM; 6mer-1 Top sequence (top combinations)

Row | Substance | Binding affinity
127 | 6mer-1-69 (RKVRRR) | 142 Ru
128 | 6mer-1-90 (KKGISK) | 125 Ru
129 | 6mer-1-142 (KKVYYK) | 123 Ru
130 | 6mer-1-56 (RRGIQR) | 137 Ru
131 | 6mer-1-50 (KKVRTR) | 139 Ru
132 | 6mer-1-108 (RRLLLR) | 139 Ru
133 | 6mer-1-71 (KRWFYK) | 121 Ru
134 | 6mer-1-78 (KKRVSK) | 145 Ru
135 | 6mer-1-80 (KRVQQR) | 133 Ru

Same assay, conditions: SPR; XRRGVRR-7mer and RRGVRRX-7mer

Row | Substance | Binding affinity, values relative to the RRGVRR sequence
136 | 3654 (NRRGVRR) [compound 3654] | 109

Same assay, conditions: SPR; XRRQRR-6mer and RRQRRX-6mer

Row | Substance | Binding affinity, relative value to the RRQRR sequence
137 | 3616 (KRRQRR) [compound 3616] | 173
138 | 3638 (RRQRRH) [compound 3638] | 158
139 | 3607 (IRRQRR) [compound 3607] | 121

Same assay, conditions: SPR; peptides tested at 10 μM; 5mer Bottom sequence

Row | Substance | Binding affinity
140 | 5mer-825 (RDEKK) | 14 Ru
141 | 5mer-1191 (RMDWK) | 30 Ru
142 | 5mer-816 (RKPIK) | 26 Ru
143 | 5mer-883 (KMSAK) | 16 Ru
144 | 5mer-819 (RNTIK) | 19 Ru
145 | 5mer-1182 (REKWK) | 15 Ru
